# Test results reported in publication PMC7060279, “CCN1 is an opsonin for bacterial clearance and a direct activator of Toll-like receptor signaling” (Nature Communications, 2020).
# B1: CCN1-WT (recombinant matricellular protein CCN1) (natural protein, UniProt P18406 25-379, looked up)
# chain: TCPAACHCPLEAPKCAPGVGLVRDGCGCCKVCAKQLNEDCSKTQPCDHTKGLECNFGASSTALKGICRAQSEGRPCEYNSRIYQNGESFQPNCKHQCTCIDGAVGCIPLCPQELSLPNLGCPNPRLVKVSGQCCEEWVCDEDSIKDSLDDQDDLLGLDASEVELTRNNELIAIGKGSSLKRLPVFGTEPRVLFNPLHAHGQKCIVQTTSWSQCSKSCGTGISTRVTNDNPECRLVKETRICEVRPCGQPVYSSLKKGKKCSKTKKSPEPVRFTYAGCSSVKKYRPKYCGSCVDGRCCTPLQTRTVKMRFRCEDGEMFSKNVMMIQSCKCNYNCPHPNEASFRLYSLFNDIHKFRD
# notes: CCN1 (CYR61), 40 kDa matricellular protein with IGFBP, vWC, TSR and CT domains; also called CYR61; Cyr61
# Columns and labels:
# [1] = molecular target: T1, human recombinant TLR2 protein (human, UniProt O60603 21-588); experiment: SPR; Biacore T-200; TLR2, TLR4 and integrin αvβ3 immobilised on a CM5 chip by amine coupling; CCN1 as analyte at 25 µl per min, 25 °C, phosphate buffer with 350 mM NaCl, 0.5 mM CaCl2, 0.5 mM MgCl2, 10 µg per ml BSA; global fit to 1:1 Langmuir model, KD = kd/ka; settings: both partners purified
# T1 construct: Toll-like receptor 2, human, recombinant protein from R&D systems; also called hTLR2; source: bought: R&D systems
# [2] = molecular target: T2, human recombinant TLR4 protein (without MD2) (human, UniProt O00206 24-631); experiment: as above; settings: both partners purified
# T2 construct: also called hTLR4; source: bought: R&D systems
# T2 sequence (O00206 24-631): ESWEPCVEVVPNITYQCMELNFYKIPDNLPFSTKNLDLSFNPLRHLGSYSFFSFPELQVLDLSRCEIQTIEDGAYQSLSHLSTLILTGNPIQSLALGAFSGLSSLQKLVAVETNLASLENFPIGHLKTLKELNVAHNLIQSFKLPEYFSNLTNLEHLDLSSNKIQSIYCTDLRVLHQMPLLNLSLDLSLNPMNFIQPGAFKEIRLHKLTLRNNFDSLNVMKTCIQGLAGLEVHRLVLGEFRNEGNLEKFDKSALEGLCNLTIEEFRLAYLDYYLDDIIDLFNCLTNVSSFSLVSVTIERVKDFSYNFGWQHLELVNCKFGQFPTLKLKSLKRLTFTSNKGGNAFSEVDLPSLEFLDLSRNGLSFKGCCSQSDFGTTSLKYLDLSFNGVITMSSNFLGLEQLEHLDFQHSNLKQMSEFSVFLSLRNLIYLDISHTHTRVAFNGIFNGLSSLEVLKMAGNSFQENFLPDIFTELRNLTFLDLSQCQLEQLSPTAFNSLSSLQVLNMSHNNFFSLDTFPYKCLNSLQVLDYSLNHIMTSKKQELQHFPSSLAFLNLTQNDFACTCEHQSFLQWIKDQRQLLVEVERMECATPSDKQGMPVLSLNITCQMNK
# T1 sequence (O60603 21-588): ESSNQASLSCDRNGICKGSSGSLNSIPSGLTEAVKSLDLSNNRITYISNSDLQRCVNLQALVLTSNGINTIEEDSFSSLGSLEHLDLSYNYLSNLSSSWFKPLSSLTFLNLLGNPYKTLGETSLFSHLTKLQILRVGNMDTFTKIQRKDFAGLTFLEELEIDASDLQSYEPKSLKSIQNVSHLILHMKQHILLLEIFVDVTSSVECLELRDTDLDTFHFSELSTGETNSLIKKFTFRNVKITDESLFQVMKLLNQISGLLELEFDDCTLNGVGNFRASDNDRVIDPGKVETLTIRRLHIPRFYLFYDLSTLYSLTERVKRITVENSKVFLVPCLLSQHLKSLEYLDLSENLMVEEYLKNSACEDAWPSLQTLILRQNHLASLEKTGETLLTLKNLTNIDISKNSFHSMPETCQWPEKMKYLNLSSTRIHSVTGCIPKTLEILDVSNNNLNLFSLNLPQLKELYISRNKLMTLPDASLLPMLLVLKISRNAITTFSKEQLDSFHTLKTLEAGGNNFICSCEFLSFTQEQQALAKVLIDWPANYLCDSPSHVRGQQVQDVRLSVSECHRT
binder,measurement,setting,value
B1,Kd,[1],227 nM
same,Kd,[2],291 nM
